Like-named read-outs stand apart in the source and are kept apart here. Non-standard residues stand in square brackets, D forms with d. No end group written: not given here. *: point of attachment. Biotin = O=C1N[C@H]2[C@H](CS[C@H]2CCCCC(=O)*)N1; Arg(Me) = CNC(=N)NCCC[C@H](N)C(=O)O; Ahx = NCCCCCC(=O)O

The values below come from patent publication US20260266833A1 (AXOIYA, published 2026).

Sequences and labels used below:
B5: H3K27me3 peptide (peptide)
peptide: KQLATKAARKSAPATGGVK
modifications: Kme3 (trimethyl-lysine) at the 10th residue (KQLATKAARKme3SAPATGGVK); N-terminus biotin + aminohexanoic acid linker, or FITC at the N-terminus for fluorescence polarization
notes: Synthetic peptide (GenScript); One entry is used for the biotinylated and the FITC-labelled form

In assay [1] the target is B5. Nature of the assay: fluorescence polarization. (Polarisation of emitted light reports the rotation of a fluorescent probe.)
Procedure: (§3) Fluorescence polarization (FP) assays were performed in a 20 μl volume at a constant histone peptide concentration of 0.5 nM. Binding measurements were performed in FP buffer (25 mM HEPES pH 7.5, 150 mM NaCl, 1 mM DTT, 0.01% TritonX-100) by mixing in a 384-well black plate (Corning) 0.5 nM FITC-labeled histone peptides with serial dilutions of wild-type Cbx chromodomains ranging from 200-0.2 μM. For affinity determination of Cbx7.V1 and all Cbx. VDs, chromodomains were serially diluted from 50 μM to 50 nM. Samples were incubated for 30 min at 25° C. prior to data acquisition. […] Dissociation constants were determined using Prismv.9.3 (GraphPad Software Inc) with a one-site total binding model.
(§4) FP assays was used to measure the affinities of each wild-type Cbx chromodomain (Cbx.wt) and its Cbx. VD version for the H3K9me3 and H3K27me3 peptides (Table 13).
Another assay concerns the target T1, H3R17me1.
T1 construct: also called H3R17me1 peptide
T1 peptide: {Biotin-Ahx}-KSTGGKAP[Arg(Me)]KQLATKAA
Nature of the assay: luciferase-fusion assay on immobilized peptide. As for the experimental part:
(§1) For luciferase-based assays, 384-well white plates (PerkinElmer) were coated for 16 h at 4° C. with 4 μg/ml streptavidin (New England Biolabs, N7021S) in TBS pH 8.5 (50 mM Tris-HCl pH 8.5, 150 mM NaCl). Each well was blocked with 60 μl/well of TBS pH 8.5 containing 0.5% BSA (TB buffer) and incubated at 25° C. for 1 h. Plates were washed four times with 90 μl/well of PBS pH 7.4, 0.05% Tween-20 (PT buffer) and incubated with 25 μl/well of biotinylated histone peptides at 5 μg/ml in TB buffer pH 8.5 for 30 min at 25° C. Plates were washed and incubated with Cbx chromodomain-luciferase fusions diluted to 0.1 nM for Cbx. VD or 100 nM for Cbx.wt in TB buffer, 0.05% Tween-20, 1 mM DTT, 5% glycerol (TBT buffer). Plates were incubated for 1 h at 25° C. with gentle shaking, washed six times and luminescence intensity was measured with a Biotek Synergy 5 plate reader (Biotek) using the ONE-Glo™ EX luciferase assay system reagent (Promega). Following background subtraction of the luminescence signal derived from wells coated with streptavidin, the luminescence intensity was normalized to wells with immobilized H3K9me3 peptide.
(§2) To enhance detection sensitivity, each chromodomain was expressed as a fusion to the N-terminus of an engineered firefly luciferase and binding was measured by luminescence intensity.

The target in the next assay is T2, H3K27me1 (Kme1 at peptide residue 10 (histone H3 K27); N-terminal biotin and aminohexanoic acid linker).
T2 construct: also called H3K27Me1 peptide
T2 peptide: KQLATKAARKSAPATGGVK
The assay can be described thus: luciferase-fusion assay on immobilized peptide. Here is the method:
as §1, §2

A further assay concerns the target T3, H3K14.
T3 construct: also called H3K14 peptide (non-modified)
T3 peptide: {Biotin-Ahx}-TARKSTGGKAPRKQLAT
Nature of the assay: luciferase-fusion assay on immobilized peptide. As for the experimental part: as §1, §2

The target of the next assay is T4, H3K9Ac (Kac at peptide residue 9 (histone H3 K9); N-terminal biotin and aminohexanoic acid linker).
T4 construct: also called H3K9Ac peptide
T4 peptide: ARTKQTARKSTGGKAPR
The assay can be described thus: luciferase-fusion assay on immobilized peptide. As for the experimental part:
as §1, §2

The target of assay [2] is T5, H3K9 peptide (non-methylated) (also: N-terminal FITC, or biotin + Ahx).
T5 construct: also called unmethylated H3K9 peptide
T5 peptide: ARTKQTARKSTGGKAPR
The assay can be described thus: luciferase-fusion assay on immobilized peptide. As for the experimental part:
as §1, §2

The target of a further assay is T6, H3K9me1 (Kme1 at peptide residue 9 (histone H3 K9); N-terminal biotin and aminohexanoic acid linker).
T6 construct: also called H3K9Me1 peptide
T6 peptide: ARTKQTARKSTGGKAPR
The assay can be described thus: luciferase-fusion assay on immobilized peptide. As for the experimental part: as §1, §2

Another assay concerns the target H4K20 peptide (N-terminus biotin + aminohexanoic acid linker). Nature of the assay: luciferase-fusion assay on immobilized peptide. As for the experimental part: as §1, §2
The target of the next assay is T7, H3K9me2 (Kme2 at peptide residue 9 (histone H3 K9); N-terminal biotin and aminohexanoic acid linker).
T7 construct: also called H3K9Me2 peptide
T7 peptide: ARTKQTARKSTGGKAPR
The assay can be described thus: luciferase-fusion assay on immobilized peptide. As for the experimental part: as §1, §2

The target in the next assay is T8, H3K27me2 (Kme2 at peptide residue 10 (histone H3 K27); N-terminal biotin and aminohexanoic acid linker).
T8 construct: also called H3K27Me2 peptide
T8 peptide: KQLATKAARKSAPATGGVK
Nature of the assay: luciferase-fusion assay on immobilized peptide. Here is the method:
as §1, §2

A further assay concerns the target T9, H4K20me3 (Kme3 at peptide residue 8 (histone H4 K20); N-terminal biotin and aminohexanoic acid linker).
T9 construct: also called H4K20Me3 peptide
Nature of the assay: luciferase-fusion assay on immobilized peptide. As for the experimental part:
as §1, §2

Assay [3] has as its target T10, H3K27 peptide (non-methylated) (also: N-terminal biotin + Ahx, or FITC at N-terminus).
T10 construct: also called unmethylated H3K27 peptide
T10 peptide: KQLATKAARKSAPATGGVK
The assay can be described thus: luciferase-fusion assay on immobilized peptide. As for the experimental part:
as §1, §2

Another assay deals with T11, H3R17.
T11 construct: also called H3R17 peptide (non-modified)
T11 peptide: {Biotin-Ahx}-KSTGGKAPRKQLATKAA
The assay can be described thus: luciferase-fusion assay on immobilized peptide. As for the experimental part: as §1, §2

The next assay has as its target T12, H3K14Ac.
T12 construct: also called H3K14Ac peptide
T12 peptide: {Biotin-Ahx}-TARKSTGGK(Ac)APRKQLAT
The assay can be described thus: luciferase-fusion assay on immobilized peptide. As for the experimental part:
as §1, §2

Assay [4] addresses B5. The assay can be described thus: luciferase-fusion assay on immobilized peptide. As for the experimental part: as §1, §2
Assay [5] addresses B5. Nature of the assay: ITC, peptide titrated into the chromodomain, 25 C. A general note: In ITC the heat of successive injections is recorded.
Procedure: Dissociation constants were determined using the one-site binding model supplied in MicroCal PEAQ-ITC analysis software (version 1.1.0.1262) with the fitted offset control. Data are the average from three independent experiments ±1 SD.
Assay [6] has as its target B5. Nature of the assay: fluorescence polarization, FITC-peptide 0.5 nM.
Procedure: as §3
Assay [7] has as its target T13, Cbx7.wt chromodomain (tags removed) (human, UniProt O95931 4-75).
T13 construct: also called Cbx7-chromo
T13 sequence: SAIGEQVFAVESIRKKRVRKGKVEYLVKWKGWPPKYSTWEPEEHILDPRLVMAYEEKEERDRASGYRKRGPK
Nature of the assay: fluorescence polarization, FITC-peptide 0.5 nM.
Procedure: as §3

The target in assay [8] is Cbx3.wt chromodomain (tags removed) (human, UniProt Q13185 23-81). Nature of the assay: fluorescence polarization.
Chain of Cbx3.wt chromodomain (tags removed) (Q13185 23-81 limits assumed): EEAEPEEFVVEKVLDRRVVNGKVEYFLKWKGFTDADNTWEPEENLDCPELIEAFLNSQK
Procedure: as §3, §4
In assay [9] the target is T14, Cbx1.wt chromodomain (tags removed) (human, UniProt P83916 17-79).
T14 construct: also called Cbx1-chromo
T14 sequence (P83916 17-79 limits assumed): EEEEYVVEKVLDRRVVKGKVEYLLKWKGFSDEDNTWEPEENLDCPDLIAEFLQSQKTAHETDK
Nature of the assay: fluorescence polarization.
Procedure: as §3, §4

In assay [10] the target is Cbx5.wt chromodomain (tags removed) (human, UniProt P45973 17-78). The assay can be described thus: fluorescence polarization.
Chain of Cbx5.wt chromodomain (tags removed) (P45973 17-78 limits assumed): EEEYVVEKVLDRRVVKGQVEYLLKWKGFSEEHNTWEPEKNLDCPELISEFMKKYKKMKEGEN
Procedure: as §3, §4
Assay [11] addresses T15, Cbx6.wt chromodomain (tags removed) (human, UniProt O95503 6-69).
T15 construct: also called Cbx6-chromo
T15 sequence: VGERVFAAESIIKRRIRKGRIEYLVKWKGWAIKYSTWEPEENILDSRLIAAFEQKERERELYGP
Nature of the assay: fluorescence polarization.
Procedure: as §3, §4

The target of assay [12] is T13, Cbx7.wt chromodomain (tags removed). The assay can be described thus: fluorescence polarization, FITC-peptide 0.5 nM. This is another data set of the same source.
Procedure: as §3, §4
Assay [13] addresses T16, Cbx2.wt chromodomain (tags removed) (human, UniProt Q14781 8-70).
T16 sequence: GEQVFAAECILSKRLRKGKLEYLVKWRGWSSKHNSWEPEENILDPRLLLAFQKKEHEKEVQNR
The assay can be described thus: fluorescence polarization, FITC-peptide 0.5 nM.
Procedure: as §3, §4

B1: Cbx6.VD chromodomain (tags removed) (designed binder)
chain: VGDRVFAAESIIKRRIRKGRIEYLVKWEGWAIKYSTWEPEENILDSRLIAAFEQKERERELYGP
Consider B1, for which the binding result with H3K27me3 peptide [1] is reported as “no binding”.

B2: Cbx8.wt chromodomain-luciferase fusion (other)
chain: MSYYHHHHHHGSDYKDDDDKSSGENLYFQGSGGSGERVFAAEALLKRRIRKGRMEYLVKWKGWSQKYSTWEPEENILDARLLAAFEEREREMELYGP
notes: not shown: engineered YY5 firefly luciferase from Photinus pyralis fused to the C-terminus
Take B2: the binding result (with H3R17me1; with H3K27me1; with H3K14; in the assay with H3K9Ac; in [2]; in the assay with H3K9me1) was “no binding (tested: 100 nM)” each time. Further, the binding result (in the assay with H4K20 peptide; with H3K9me2; with H3K27me2; in the assay with H4K20me3; in assay [3]; with H3R17) was “no binding (tested: 100 nM)” throughout. In addition, in the assay with H3K14Ac, the binding result is listed as “no binding (tested: 100 nM)”.

B3: Cbx6.VD chromodomain-luciferase fusion (designed binder)
chain: MSYYHHHHHHGSDYKDDDDKSSGENLYFQGSGGSVGDRVFAAESIIKRRIRKGRIEYLVKWEGWAIKYSTWEPEENILDSRLIAAFEQKERERELYGP
notes: as for B2
Regarding B3, the binding result (with H3R17me1; in the assay with H3K27me1; with H3K14; with H3K27me2; in the assay with H3K27me3 peptide [4]; in [3]) was “no binding (tested: 0.1 nM)” in each case. Besides, the binding result with H3R17 is given as “no binding (tested: 0.1 nM)”.

B4: Cbx7.V1 chromodomain (tags removed) (designed binder)
chain: SAIGDDIFAVESIRKKRVRKGKVEYLVKWEGWPLEYSTWEPEEHILDPRLVMAYEEKEERDRASGYRKRGPK
notes: ITC and FP: His6 and Flag tags removed with TEV protease
The term Kd denotes the concentration at which binding is half-saturated. Turning to B4, the Kd amounted to 7.8 µM with H3K27me3 peptide [5] and 4 µM with H3K27me3 peptide [6].
Take B5: the Kd in [7] amounted to 110 µM; in assay [12] it was 110 µM; in assay [13], 100 µM. For the same molecule, the binding result in assay [8], in [9], in assay [10] and in assay [11] was “no binding” in each case.
